Measured values reported in patent publication US7037663B2, “Human zona pellucida protein 3 and uses thereof” (Eastern Virginia Medical School, priority 1998, dated 2006).
Values joined by “and” are separate entries in the source; they are usually repeats but may differ in a detail not shown here. Identical values can stand only once. Like-named read-outs stand apart in the source and are kept apart here.

Experiments:
[1] = tested on: sperm-zona pellucida binding; experiment: Hemizona assay (HZA), competitive inhibition of sperm-zona binding, first series; format: cell-based, human
Description: An inverted, phase-contrast microscope equipped with a micromanipulation system was routinely employed to cut the oocyte into halves to obtain matching hemizonae. Oocytes used in the experiments were obtained from surgically-removed ovarian tissue or discarded from IVF therapy under approval of the Institutional Review Board at Eastern Virginia Medical School. The hemizonae were washed in PBS to completely deplete the cytoplasm. Sperm samples were from healthy fertile donors. A swim-up procedure was applied to obtain motile sperm, which were then adjusted to 0.5 million/ml in Human Tubal Fluid (HTF) supplemented with 0.3% Human Serum Albumin (HSA) for hemizona assay. In one Petri dish, one droplet of 100 ul of sperm suspension was placed as a control. Another droplet of sperm was pre-treated with rhZP3. One hemizona was placed into the control droplet and the matching hemizona was placed in the sperm droplet treated with rhZP3. Five pairs of hemizona were used for each experiment. All dishes were incubated at 37° C., 5% CO2 for 4 hours. Each hemizona was removed and rinsed 15 times in PBS, and transferred to the counting dish. The number of sperm bound to the surface of each hemizona was counted under phase microscopy. The HZI was calculated to evaluate rhZP3-binding activity (competitive inhibition) as follows: number of sperm bound for treatment/number of sperm bound for control×100.

human sperm [2] = experiment: Acrosome reaction of capacitated sperm by FITC/PSA with Hoechst 33258 viability stain, first series; format: cell-based
Method: The purified rhZP3 was also applied to test its activity to induce human sperm acrosome reaction. The motile sperm obtained by swim-up procedure were allowed to capacitate in HTF/0.5% HSA for four hours at 37° C. in 5% CO2 in huminified air. The motile sperm concentration used to detect acrosome reaction was set at 2 million/ml. A series of 100 ul of capacitated sperm aliquots with different inducers were prepared in Eppendorf vials and cultured in the incubator in 95% air, 5% CO2, at 37° C. for 30 minutes. The test was conducted as follows: positive control: calcium ionophore A23187 (Sigma) at 5 μM; negative controls: 1) sperm culture medium alone, and 2) protein isolated from the culture media of non-transfected PA-1 cells (NT); test: rhZP3. Triple slides were made for each assay. Hoechst 33258 stain was used for determination of sperm viability. Fluorescein isothiocyanate conjugated Pisum sativum agglutinin (FITC/PSA) (Sigma) staining technique was employed to evaluate the acrosome reaction (Cross et al, 1986). Blind reading was required for evaluation and at least 100˜200 cells from 5 random fields were evaluated per spot on the slide. […] The results were expressed as percentage of acrosome-reacted spermatozoa in the total population counted (Cross, 1986).
In some experiments, Solubilized zona pellucida were used as control to test its function to induce sperm acrosome reaction. The solubilized zona pellucida were prepared according to Franken et al (1996). Ooplasma was removed using a small glass micropipette. A vigorous pipetting action would break their zona causing ooplasma to be spilled into surrounding medium. The chosen amount of zonae was transferred into an eppendorf tube and was centrifuged for 15 minutes at 300×g. Using a steromicroscope, the media were removed with pipette, making sure not to disturb zona. The final result was to remove maximum medium. A chosen volume (depending on the zona concentration needed) of 10 mM HCl was added. Under the microscopic vision, zona/HCl was pipetted up and down until all zona were dissolved. Then 10 mM NaOH of equal volume as the HCl was added and mixed well to obtain the stock zona solution.

[3] = Isoelectric focusing electrophoresis; format: physicochemical; conditions: ampholytes pH 3-10 and pH 4-8
Method: For further biochemical analysis, isoelectric focusing electrophoresis was performed. Approximately five microgram of recombinant ZP3 was loaded into an isoelectrophoresis tube with ampholytes (pH 3-10) in a wide range, and ampholytes (pH 4-8) in a narrow range. The same amount protein sample isolated from the PA-1 cells without transfected with hZP3 cDNA was used as a control.

[4] = tested on: sperm-zona pellucida binding; experiment: Competitive hemizona assay (HZA), second series; format: cell-based, human
Method: Measurement of sperm-zona pellucida binding-Salt-stored, immature (prophase I) human oocytes were used in the experiments. Oocytes were desalted and microbisected into matching halves (hemizonae) using a micromanipulator (Narishige, Tokyo, Japan) following techniques published elsewhere (10, 11, 19). Control and test sperm droplets (100 μl each of a final dilution of 0.5×10^6 motile sperm/ml 1 hour post-swim-up) were incubated separately under heavy mineral oil (Sigma) with a hemizona from the same matching pair for 4 hours at 37° C. in 5% CO2 in humidified air. After the co-incubation period, the hemizonae were washed to remove loosely attached sperm using a finely drawn glass pipette, and the sperm tightly bound to the outer zona surface were counted under phase microscopy (×200). The hemizona assay index (HZI) was calculated as follows: # of sperm bound for test sample/# of sperm bound for control sample×100. An HZI of 100 indicates no inhibition whereas an HZI of 0 reflects complete inhibition of binding.
Swim up sperm were incubated with rhZP3 (test, at a final concentration of 0, 10, 30, 100, 250, 500 or 2,000 ng/ml of protein) or in culture medium (control) for 30 min under identical conditions. After 30 min, a hemizona was added to the test sperm droplet whereas the matching hemizona from the same pair was added to the control sperm droplet. Three pairs of matching hemizonae were tested per rhZP3 concentration per semen sample in a total of three ejaculates from different donors.
Additional competitive HZAs were performed where the test sperm droplet (rhZP3) was assessed against control sperm droplets of culture medium from non-transfected PA-1 cells (NT). Also, competitive HZAs were carried out where the test sperm droplet (culture medium from non-transfected PA-1 cells, NT) was assayed against sperm culture medium. Three pairs of matching hemizonae were tested per dose per experiment in a total of three different ejaculates. These studies were carried out in order to examine the specificity of the effect of the rhZP3.

[5] = Aggregation of purified glycoprotein on freezing; format: physicochemical; conditions: freezing the purified product
Description: In the zona pellucida, ZP3 associates with ZP2 and ZP1 to form a network structure (Wassarman, 1988). This network structure prevents aggregation of these glycoproteins. However, in solution these glycoproteins tend to aggregate together. This phenomenon has been observed in several recombinant glycoproteins, including ZP3 (Champan and Barratt, 1997). In purifying rhZP3, we have avoided this problem by obtaining a highly purified product, and testing its biological activities within a week-period while maintaining the protein at 4° C. […] This problem becomes worse as larger amounts of the glycoprotein are trying to be produced. Different strategies are being looked into in order to produce and purify large amounts of biologically active rhZP3 in our laboratory.

human sperm [6] = conditions: Dong et al 2000; cited from earlier work

B1: rhZP3: recombinant human zona pellucida protein 3 with six-histidine tail, expressed in human ovarian PA-1 cells; secreted glycoprotein of approximately 65 Kd (protein)
chain: QPLWLLQGGASHPETSVQPVLVECQEATLMVMVSKDLFGTGKLIRAADLTLGPEACEPLVSMDTEDVVRFEVGLHECGNSMQVTDDALVYSTFLLHDPRPVGNLSIVRTNRAEIPIECRYPRQGNVSSQAILPTWLPFRTTVFSEEKLTFSLRLMEENWNAEKRSPTFHLGDAAHLQAEIHTGSHVPLRLFVDHCVATPTPDQNASPYHTIVDFHGCLVDGLTDASSAFKVPRPGPDTLQFTVDVFHFANDSRNMIYITCHLKVTLAEQDPDELNKACSFSKPSNSWFPVEGSADICQCCNKGDCGTPSHSRRQPHVMSQWSRSASRNHHHHHH
In the case of B1, the “inhibition of sperm-ZP binding” value ([1]; 30 ng/ml, sperm pre-incubated 30 min) is reported as “approximately 60%”, the “HZI (Mean ± SEM)” value ([1]; test reagent 30 ng/ml versus control 30 ng/ml NT) is reported as 44.5 (3.6) and the “HZI (Mean ± SEM)” value ([1]; test reagent 30 ng/ml versus control HTF/0.5% HSA, 30 min pre-incubation, 4 h with hemizona) is reported as 43.6 (3.3). The “increase of the percentage of acrosome-reacted sperm from control conditions” value (human sperm [2]; 30 ng/ml, 30 minutes pre-incubation) was 150%, the “% acrosome reacted-sperm” value (human sperm [2]; NT 30 ng/ml, calcium ionophore 5 μM, rhZP3 30 ng/ml, solubilized zona 0.5 ZP/μl, 4 h capacitation, 30 min, mean (± SEM)) was 18.3% and the “isoelectric point (PI)” value [3] was 4.60±0.05 and ~5.60. For the same molecule, the “isoelectric point (PI)” value ([3]; listed as recombinant human ZP3) was 4.6±0.05, the “concentration range of highest (maximal) inhibition of binding” value [4] was 500 to 2000 ng/mL and the “minimally effective dose, inhibition of binding under HZA conditions” value ([4]; 30 min pre-incubation) was 30 ng/mL. The “highest inhibition of binding” value ([4]; in the range of 500-2,000 ng/ml) was “approximately 70%”, the “concentration range of highest (maximal) inhibition of binding” value ([4]; listed as Recombinant hZP3) was 500-2,000 ng/ml and the “HZI (Hemizona index)” value ([4]; test reagent 30 ng/mL versus 30 ng/mL NT) was 44.5 ± 3.6. For the same molecule, the “HZI (Hemizona index)” value ([4]; test reagent 30 ng/mL versus Ham's F-10/0.5% HSA) was 43.6 ± 3.3, the “HZI (Hemizona index)” value ([4]; test reagent 500 ng/mL versus 500 ng/mL NT) was 41.8 ± 1.9 and the “HZI (Hemizona index)” value ([4]; test reagent 500 ng/mL versus Ham's F-10-0.5% HSA) was 38.0 ± 2.7. For the same molecule, the “aggregation on freezing (in words)” value [5] was “problems of aggregation of the glycoprotein as we attempted freezing the product”, the “sperm motion parameters, treatment versus control” value (sperm) was “not significantly different” and the “range of maximal effect, acrosome reaction-inducing activity” value (human sperm [6]) was 30-1,000 ng/ml.
